Data as given in PMC8065580, “A Lipid Bodies-Associated Galactosyl Hydrolase Is Involved in Triacylglycerol Biosynthesis and Galactolipid Turnover in the Unicellular Green Alga Chlamydomonas reinhardtii” (Plants, 2021).

Substrate: O=[N+]([O-])c1ccccc1O[C@@H]1O[C@H](CO)[C@H](O)[C@H](O)[C@H]1O
Test: purified protein
Format: biochemical, Chlamydomonas reinhardtii
Details: 30 mM magnesium chloride buffer, pH 7.3, 37 °C, MBP fusion

B1: CrGH (Chlamydomonas reinhardtii) (protein)
chain: MTGSGKPAANKATANGDGEPVRFLKGAAISVWQNSGDDDSNWTRFAKSRWPFRSFGVSAIRGKYNIDKCSDFWNNYERDIKLAADIGSTTFRFSIEWARIEPLRGVFDMEAVHRYHQMLDCMAAHGLVPNATLWHFVHPTWFEQAGGWTKEENIPAFVRFSVKCFEWFKDKITLWATFNEPTCYMFLAFIVGIAPPGRIMDLVTAGRMLSTMLKAHTATYRAIKAAPGGQAAQVGLVSHHITFEPQGTGILYGVSKVLSDWMTYWWGWDVVHHWMLTGEFVWKLPVLGVWQRWQDPAGRPPCDWWGINYYSRGIFSWYLAPSCRESEVMTDMYYPIYPEGLYKCIKRCSEFGIPMYITETGIADARDDRRALMIDSYMKATLRAVAEGCDVRGLYYWTLLDNLEWATGYTMKFGLYAWEPDGSVDRKLKEGSKTLVRYFKTLPDDLAGVRAAARQVQGQLGEDLGVEAALEEEGVTRVAAGGKLVVGEAAGKGGEAEGRKAVGMVAIG
notes: full-length CDS (1527-bp ORF, about 508 residues) in pMAL-c5x, MBP fusion, about 98 kDa, E. coli BL21(DE3), amylose resin; tag cleavage not mentioned; GH family 1, motifs TFNEP and ITETG
B1 gave a Km of 13.98 µM and a kcat of 3.62 s⁻¹.
